Reference: patent publication EP4321174A1 (Genome and Company, dated 2024)

Assays:
Assay in all cases: ELISA, coated CNTN4 domain sample, anti-human IgG Fc-HRP
[1] = target: T1, Human CNTN4 domain sample D1-8 (human, UniProt Q8IWV2 19-799, limits assumed)
T1 construct: domain: Domains 1 to 8; Coated at 3.2 ug/mL
T1 sequence (looked up): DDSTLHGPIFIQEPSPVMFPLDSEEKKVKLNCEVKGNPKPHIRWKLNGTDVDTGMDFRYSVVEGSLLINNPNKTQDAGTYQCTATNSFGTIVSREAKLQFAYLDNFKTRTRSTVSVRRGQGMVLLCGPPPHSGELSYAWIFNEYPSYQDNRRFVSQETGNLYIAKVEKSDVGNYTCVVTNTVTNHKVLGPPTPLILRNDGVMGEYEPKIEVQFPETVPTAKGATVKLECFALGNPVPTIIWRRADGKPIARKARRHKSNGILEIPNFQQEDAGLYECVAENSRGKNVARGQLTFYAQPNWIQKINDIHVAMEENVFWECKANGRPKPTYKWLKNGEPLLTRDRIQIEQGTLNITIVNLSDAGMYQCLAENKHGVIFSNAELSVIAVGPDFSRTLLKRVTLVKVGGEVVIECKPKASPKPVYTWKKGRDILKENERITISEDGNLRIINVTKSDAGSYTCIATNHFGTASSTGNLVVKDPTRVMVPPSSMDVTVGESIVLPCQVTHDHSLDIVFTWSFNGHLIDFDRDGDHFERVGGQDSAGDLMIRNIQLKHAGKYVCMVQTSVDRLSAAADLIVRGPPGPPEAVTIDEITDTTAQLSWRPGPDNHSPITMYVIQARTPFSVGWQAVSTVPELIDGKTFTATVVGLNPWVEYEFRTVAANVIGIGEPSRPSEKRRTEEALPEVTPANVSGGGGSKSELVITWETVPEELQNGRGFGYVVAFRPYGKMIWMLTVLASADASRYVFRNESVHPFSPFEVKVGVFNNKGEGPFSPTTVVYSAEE

[2] = target: T2, Human CNTN4 domain sample D1-7 (human, UniProt Q8IWV2 19-697, limits assumed)
T2 construct: domain: Domains 1 to 7; Coated at 2.8 ug/mL
T2 sequence (looked up): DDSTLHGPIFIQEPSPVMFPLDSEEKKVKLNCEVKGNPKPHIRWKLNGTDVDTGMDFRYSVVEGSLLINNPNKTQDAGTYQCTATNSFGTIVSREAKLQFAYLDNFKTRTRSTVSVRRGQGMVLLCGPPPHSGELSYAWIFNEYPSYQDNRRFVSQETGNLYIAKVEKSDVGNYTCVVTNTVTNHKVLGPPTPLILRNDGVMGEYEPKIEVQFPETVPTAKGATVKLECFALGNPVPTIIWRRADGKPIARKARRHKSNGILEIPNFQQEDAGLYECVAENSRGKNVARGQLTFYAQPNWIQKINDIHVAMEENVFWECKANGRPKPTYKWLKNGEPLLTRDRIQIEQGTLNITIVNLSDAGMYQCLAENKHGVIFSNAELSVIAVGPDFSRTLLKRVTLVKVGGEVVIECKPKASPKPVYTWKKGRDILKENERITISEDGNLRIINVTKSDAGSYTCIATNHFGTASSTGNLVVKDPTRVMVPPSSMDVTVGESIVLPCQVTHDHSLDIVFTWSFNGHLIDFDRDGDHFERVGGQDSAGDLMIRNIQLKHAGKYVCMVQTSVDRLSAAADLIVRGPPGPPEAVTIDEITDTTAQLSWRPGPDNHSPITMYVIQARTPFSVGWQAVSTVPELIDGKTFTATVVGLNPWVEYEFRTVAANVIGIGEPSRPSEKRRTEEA

[3] = target: T3, Human CNTN4 domain sample D1-6 (human, UniProt Q8IWV2 19-586, limits assumed)
T3 construct: domain: Domains 1 to 6; Coated at 2.3 ug/mL
T3 sequence (looked up): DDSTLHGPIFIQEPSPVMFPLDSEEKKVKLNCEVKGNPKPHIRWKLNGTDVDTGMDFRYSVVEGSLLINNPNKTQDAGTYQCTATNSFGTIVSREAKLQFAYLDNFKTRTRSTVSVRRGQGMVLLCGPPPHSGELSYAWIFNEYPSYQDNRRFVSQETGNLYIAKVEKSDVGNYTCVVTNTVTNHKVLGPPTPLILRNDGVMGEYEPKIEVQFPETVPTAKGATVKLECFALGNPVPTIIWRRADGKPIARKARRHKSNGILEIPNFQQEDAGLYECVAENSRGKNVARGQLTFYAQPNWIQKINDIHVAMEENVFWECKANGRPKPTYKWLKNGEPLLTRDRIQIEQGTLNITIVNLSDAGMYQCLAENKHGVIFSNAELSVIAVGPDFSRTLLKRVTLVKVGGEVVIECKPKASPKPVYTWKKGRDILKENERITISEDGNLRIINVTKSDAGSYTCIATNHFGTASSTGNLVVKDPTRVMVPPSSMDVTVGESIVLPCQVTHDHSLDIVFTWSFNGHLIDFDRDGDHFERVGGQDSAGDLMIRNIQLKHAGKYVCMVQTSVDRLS

[4] = target: T4, Human CNTN4 domain sample D1-9 (human, UniProt Q8IWV2 19-899, limits assumed)
T4 construct: domain: Domains 1 to 9; Coated at 3.6 ug/mL
T4 sequence (looked up): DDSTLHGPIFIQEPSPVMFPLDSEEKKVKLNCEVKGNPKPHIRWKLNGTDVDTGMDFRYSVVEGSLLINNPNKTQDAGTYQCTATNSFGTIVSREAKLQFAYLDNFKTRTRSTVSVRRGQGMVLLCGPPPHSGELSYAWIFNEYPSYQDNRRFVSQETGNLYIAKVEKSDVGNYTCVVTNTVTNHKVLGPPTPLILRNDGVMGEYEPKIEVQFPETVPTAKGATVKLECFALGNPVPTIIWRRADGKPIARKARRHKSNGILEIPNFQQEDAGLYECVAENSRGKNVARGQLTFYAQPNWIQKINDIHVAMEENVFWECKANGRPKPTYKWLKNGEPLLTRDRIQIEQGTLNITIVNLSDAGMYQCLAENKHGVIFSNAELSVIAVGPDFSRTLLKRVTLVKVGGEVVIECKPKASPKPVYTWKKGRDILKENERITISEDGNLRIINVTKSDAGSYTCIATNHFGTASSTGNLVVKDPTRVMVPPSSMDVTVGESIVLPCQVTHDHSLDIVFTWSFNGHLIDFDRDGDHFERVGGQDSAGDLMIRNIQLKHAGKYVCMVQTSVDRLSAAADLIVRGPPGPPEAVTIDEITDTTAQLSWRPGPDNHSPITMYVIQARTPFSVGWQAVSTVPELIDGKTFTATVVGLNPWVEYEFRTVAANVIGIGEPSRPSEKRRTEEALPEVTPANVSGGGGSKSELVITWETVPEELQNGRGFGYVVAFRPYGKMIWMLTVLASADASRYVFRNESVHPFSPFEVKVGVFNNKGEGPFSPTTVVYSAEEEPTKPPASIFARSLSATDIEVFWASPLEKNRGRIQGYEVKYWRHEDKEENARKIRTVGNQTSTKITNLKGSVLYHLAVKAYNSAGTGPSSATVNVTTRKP

[5] = target: T5, Human CNTN4 domain sample D1-5 (human, UniProt Q8IWV2 19-493, limits assumed)
T5 construct: domain: Domains 1 to 5; Coated at 2.0 ug/mL
T5 sequence (looked up): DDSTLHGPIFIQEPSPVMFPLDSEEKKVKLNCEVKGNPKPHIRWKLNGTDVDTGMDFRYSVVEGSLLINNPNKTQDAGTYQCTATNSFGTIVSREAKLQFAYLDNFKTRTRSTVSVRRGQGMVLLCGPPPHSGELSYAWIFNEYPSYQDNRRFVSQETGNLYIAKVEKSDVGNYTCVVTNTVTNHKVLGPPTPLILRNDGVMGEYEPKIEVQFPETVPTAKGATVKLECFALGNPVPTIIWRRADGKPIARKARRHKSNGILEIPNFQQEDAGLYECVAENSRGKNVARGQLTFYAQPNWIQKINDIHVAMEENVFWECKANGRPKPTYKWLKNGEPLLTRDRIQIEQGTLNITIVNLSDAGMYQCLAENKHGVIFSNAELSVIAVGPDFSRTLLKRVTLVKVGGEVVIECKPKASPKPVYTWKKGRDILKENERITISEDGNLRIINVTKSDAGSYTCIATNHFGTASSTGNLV

[6] = target: T6, Human CNTN4 domain sample D1-4 (human, UniProt Q8IWV2 19-400, limits assumed)
T6 construct: domain: Domains 1 to 4; Coated at 1.6 ug/mL
T6 sequence (looked up): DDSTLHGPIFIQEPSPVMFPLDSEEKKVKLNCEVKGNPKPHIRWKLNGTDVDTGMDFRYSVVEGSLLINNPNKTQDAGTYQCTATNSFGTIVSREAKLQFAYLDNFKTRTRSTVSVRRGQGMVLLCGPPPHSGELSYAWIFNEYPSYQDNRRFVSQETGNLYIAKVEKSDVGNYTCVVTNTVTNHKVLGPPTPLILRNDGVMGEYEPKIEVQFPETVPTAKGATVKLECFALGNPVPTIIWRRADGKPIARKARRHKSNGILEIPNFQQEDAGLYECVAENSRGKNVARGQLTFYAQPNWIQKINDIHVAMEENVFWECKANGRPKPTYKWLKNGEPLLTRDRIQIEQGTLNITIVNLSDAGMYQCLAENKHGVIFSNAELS

[7] = target: T7, Human CNTN4 domain sample Full (Domains 1 to 10) (human, UniProt Q8IWV2 19-1000, limits assumed)
T7 construct: domain: Domains 1 to 10 (Ig1 to FN4); Coated on the ELISA plate at 4 ug/mL
T7 sequence (looked up): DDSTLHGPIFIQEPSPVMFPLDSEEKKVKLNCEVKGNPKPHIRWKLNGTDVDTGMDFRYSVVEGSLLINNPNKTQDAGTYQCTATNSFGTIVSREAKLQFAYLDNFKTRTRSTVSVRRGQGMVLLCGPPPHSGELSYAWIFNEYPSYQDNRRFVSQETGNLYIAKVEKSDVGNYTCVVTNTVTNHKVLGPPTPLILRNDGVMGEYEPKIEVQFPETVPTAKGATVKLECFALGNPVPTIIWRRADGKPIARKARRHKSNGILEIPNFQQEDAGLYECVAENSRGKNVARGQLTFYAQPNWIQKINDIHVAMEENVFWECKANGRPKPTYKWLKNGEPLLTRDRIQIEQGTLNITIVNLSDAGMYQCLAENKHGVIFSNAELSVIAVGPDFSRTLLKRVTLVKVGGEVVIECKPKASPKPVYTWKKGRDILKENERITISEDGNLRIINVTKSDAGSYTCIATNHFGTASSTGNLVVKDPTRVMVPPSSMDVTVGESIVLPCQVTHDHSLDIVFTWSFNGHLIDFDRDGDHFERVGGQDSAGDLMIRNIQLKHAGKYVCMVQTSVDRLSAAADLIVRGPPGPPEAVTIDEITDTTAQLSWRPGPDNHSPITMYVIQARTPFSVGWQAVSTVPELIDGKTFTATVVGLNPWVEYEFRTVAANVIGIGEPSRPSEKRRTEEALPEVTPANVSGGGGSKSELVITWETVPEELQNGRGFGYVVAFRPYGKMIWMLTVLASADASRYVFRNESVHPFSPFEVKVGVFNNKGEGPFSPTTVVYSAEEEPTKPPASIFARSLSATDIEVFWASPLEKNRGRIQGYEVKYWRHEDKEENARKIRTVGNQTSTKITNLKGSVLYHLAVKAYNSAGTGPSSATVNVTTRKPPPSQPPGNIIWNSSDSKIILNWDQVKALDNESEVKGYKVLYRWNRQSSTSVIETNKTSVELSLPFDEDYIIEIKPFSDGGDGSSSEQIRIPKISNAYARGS

B1: anti-CNTN4 chicken-human chimeric IgG4 antibody AB1 (antibody, V domains shown)
VH: AVTLDESEGGLQTPGGALSLVCKASGFTFSSFNMFWVRQAPGKGLEYVAEISGGGGSTWYAPAVKGRATISRDNGQSTVRLQLNNLRAEDTGTYYCAKSADTWSYGAATIDAWGHGTEVIVSS
VL: ALTQPSSVSANLGETVKITCSGSSGSYGWYQQKSPGSAPVTLIYDNTNRPSDIPSRFSGSGSGSTGTLTITGVRAEDEAVYYCGGYDGSTDVFGAGTTLTVL
notes: They were cloned into a chicken-human chimeric IgG4 and purified on Kappa select resin, so the light chain has a kappa constant region; also called anti-CNTN4 antibody AB1; anti-CNTN4 129 chimeric IgG4 antibody
B1: binds [1]; no binding [2]; no binding [3]. B1: binds [4]; no binding [5]; no binding [6]. B1: binds [7].
